Laboratory results reported in PMC12848141.

Columns and labels:
[1] = O-GlcNAc at T49
[2] = target: OGT (UniProt O15294); test: co-IP in H1299 cells; settings: reference: YTHDF2 wild type; sites S39
[3] = target: OGT (UniProt O15294); test: co-IP of HA-YTHDF2 and Myc-OGT; settings: reference: HA-YTHDF2 wild type; sites S39
[4] = anti-pS39 blot, H1299; settings: glycan lost; control: HA-YTHDF2-WT
[5] = CHX pulse-chase, protein remaining, HEK-293T; settings: glycan lost; control: HA-YTHDF2-WT
[6] = anti-HA IP, anti-ubiquitin blot, 293T, MG132; settings: glycan lost; control: HA-YTHDF2-WT
[7] = anti-HA IP, anti-pS39 blot, 293T
[8] = anti-ubiquitin blot, H1299; settings: glycan lost; control: HA-YTHDF2-WT
[9] = CHX pulse-chase, protein remaining, H1299; settings: glycan lost; control: HA-YTHDF2-WT

For YTHDF2: Flag-OGA overexpression, the other [1] was “decreases, YTHDF2 ubiquitination, Ub/HA ratio ~0.5 vs 1.0 without OGA (read from plot, P < 0.05)”.

In the case of “YTHDF2 (from UniProt Q9Y5A9) YTHDF2-S39A”, the “binding against the reference” value [2] is reported as “stronger”.

In the case of “YTHDF2 (from UniProt Q9Y5A9) HA-YTHDF2-S39A”, the “binding against the reference” value [3] is reported as “stronger”.

With YTHDF2: OGA overexpression the other [1] was “decreases”.

In the case of “YTHDF2: TMG plus glucose (OGA inhibition, raises O-GlcNAcylation)”, the other [1] is reported as “decreases”.

B1: YTHDF2: T49A (protein)
parent chain: MSASSLLEQRPKGQGNKVQNGSVHQKDGLNDDDFEPYLSPQARPNNAYTAMSDSYLPSYYSPSIGFSYSLGEAAWSTGGDTAMPYLTSYGQLSNGEPHFLPDAMFGQPGALGSTPFLGQHGFNFFPSGIDFSAWGNNSSQGQSTQSSGYSSNYAYAPSSLGGAMIDGQSAFANETLNKAPGMNTIDQGMAALKLGSTEVASNVPKVVGSAVGSGSITSNIVASNSLPPATIAPPKPASWADIASKPAKQQPKLKTKNGIAGSSLPPPPIKHNMDIGTWDNKGPVAKAPSQALVQNIGQPTQGSPQPVGQQANNSPPVAQASVGQQTQPLPPPPPQPAQLSVQQQAAQPTRWVAPRNRGSGFGHNGVDGNGVGQSQAGSGSTPSEPHPVLEKLRSINNYNPKDFDWNLKHGRVFIIKSYSEDDIHRSIKYNIWCSTEHGNKRLDAAYRSMNGKGPVYLLFSVNGSGHFCGVAEMKSAVDYNTCAGVWSQDKWKGRFDVRWIFVKDVPNSQLRHIRLENNENKPVTNSRDTQEVPLEKAKQVLKIIASYKHTTSIFDDFSHYEKRQEEEESVKKERQGRGK
For B1, the “other: Ser-39 phosphorylation” value [4] was “increases”, the degradation_or_half_life [5] was “increases” and the “other: ubiquitination” value [6] was “decreases”. For the same molecule, the “other: Ser-39 phosphorylation” value ([7]; glycan lost, control: HA-YTHDF2-WT) was “increases”, the “other: ubiquitination” value [8] was “decreases” and the degradation_or_half_life [9] was “increases”.

B2: YTHDF2: TMG plus glucose (protein)
parent chain: B1 parent chain
In the case of B2, the “other: Ser-39 phosphorylation” value ([7]; glycan gained, control: untreated cells) is reported as “decreases”.
